Source: the supplement of paper PMC10567573

B1: MLL5 (parent)
chain: DCMGIDRQHIPDTYLCERCQPRNL

Variants of: B1
Assay: protein stability index of a GFP-peptide fusion (GPS, HEK-293T) (PSI 1-6); higher = more stable
Conditions: c terminus: a fixed tail appended
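Also: lentivirally expressed fusions sorted by FACS into six bins by GFP to DsRed ratio, PSI derived from sequencing read proportions per bin multiplied by bin number.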

First: DCMGIDRQHIHDTYLCERCQPRNL [P11H]
Second: DCMGIDRQHIIDTYLCERCQPRNL [P11I]
The protein stability index of the first is higher: 3.71 for the first, 2.36 for the second.

First: DCMGIDRQHIDDTYLCERCQPRNL [P11D]
Second: DCMGIDRQHIYDTYLCERCQPRNL [P11Y]
The protein stability index of the first is higher: 2.61 for the first, 2.44 for the second.

Compared with DCMGIDRQHIQDTYLCERCQPRNL [P11Q], DCMGIDRQHILDTYLCERCQPRNL [P11L] is lower in protein stability index: 2.69 for the first, 2.23 for the second.

Going from DCMGIDRQHIGDTYLCERCQPRNL [P11G] to DCMGIDRQHINDTYLCERCQPRNL [P11N], the protein stability index rises from 2.96 to 4.19.

Compared with DCMGIDRQHIADTYLCERCQPRNL [P11A], DCMGIDRQHIKDTYLCERCQPRNL [P11K] is higher in protein stability index: 2.6 for the first, 2.62 for the second.

Going from DCMGIDRQHIMDTYLCERCQPRNL [P11M] to DCMGIDRQHISDTYLCERCQPRNL [P11S], the protein stability index falls from 2.82 to 2.23.

Going from DCMGIDRQHIFDTYLCERCQPRNL [P11F] to DCMGIDRQHIRDTYLCERCQPRNL [P11R], the protein stability index rises from 2.59 to 3.15.

Compared with DCMGIDRQHITDTYLCERCQPRNL [P11T], DCMGIDRQHICDTYLCERCQPRNL [P11C] is higher in protein stability index: 3.08 for the first, 4.15 for the second.

First: DCMGIDRQHIVDTYLCERCQPRNL [P11V]
Second: DCMGIDRQHIWDTYLCERCQPRNL [P11W]
The protein stability index of the first is higher: 2.73 for the first, 1.7 for the second.

Compared with DCMGIDRQHIEDTYLCERCQPRNL [P11E], DCMGISRQHIPDTYLCERCQPRNL [D6S] is lower in protein stability index: 3.43 for the first, 2.99 for the second.

First: DCMGIRRQHIPDTYLCERCQPRNL [D6R]
Second: DCMGIWRQHIPDTYLCERCQPRNL [D6W]
The protein stability index of the first is higher: 2.74 for the first, 1.62 for the second.

Compared with DCMGIYRQHIPDTYLCERCQPRNL [D6Y], DCMGIVRQHIPDTYLCERCQPRNL [D6V] is lower in protein stability index: 2.47 for the first, 2.4 for the second.

Going from DCMGIKRQHIPDTYLCERCQPRNL [D6K] to DCMGITRQHIPDTYLCERCQPRNL [D6T], the protein stability index falls from 2.59 to 2.02.

Going from DCMGIQRQHIPDTYLCERCQPRNL [D6Q] to DCMGIMRQHIPDTYLCERCQPRNL [D6M], the protein stability index falls from 3.21 to 1.88.

Compared with DCMGIPRQHIPDTYLCERCQPRNL [D6P], DCMGINRQHIPDTYLCERCQPRNL [D6N] is lower in protein stability index: 2.61 for the first, 2.4 for the second.

First: DCMGILRQHIPDTYLCERCQPRNL [D6L]
Second: DCMGIDRQHIPDTYLAERCQPRNL [C16A]
The protein stability index of the first is lower: 2.31 for the first, 3.56 for the second.

Going from DCMGIDRQHIPDTYLFERCQPRNL [C16F] to DCMGIDRQHIPDTYLEERCQPRNL [C16E], the protein stability index rises from 3.13 to 3.65.

First: DCMGIDRQHIPDTYLHERCQPRNL [C16H]
Second: DCMGIDRQHIPDTYLDERCQPRNL [C16D]
The protein stability index of the first is lower: 3.58 for the first, 3.91 for the second.

Going from DCMGIDRQHIPDTYLGERCQPRNL [C16G] to DCMGIDRQHIPDTMLCERCQPRNL [Y14M], the protein stability index falls from 4.23 to 3.5.

Going from DCMGIDRQHIPDTPLCERCQPRNL [Y14P] to DCMGIDRQHIPDTHLCERCQPRNL [Y14H], the protein stability index rises from 3.71 to 4.12.

Going from DCMGIDRQHIPDTELCERCQPRNL [Y14E] to DCMGIDRQHIPDTRLCERCQPRNL [Y14R], the protein stability index falls from 4.21 to 3.88.

Going from DCMGIDRQHIPDTFLCERCQPRNL [Y14F] to DCMGIDRQHIPDTDLCERCQPRNL [Y14D], the protein stability index rises from 2.89 to 3.83.

First: DCMGIDRQHIPDTGLCERCQPRNL [Y14G]
Second: DCMGIDRQHIPDTNLCERCQPRNL [Y14N]
The protein stability index of the first is higher: 3.35 for the first, 3.15 for the second.

First: DCMGIDRQHIPDTSLCERCQPRNL [Y14S]
Second: DCMGIDRQHIPDTCLCERCQPRNL [Y14C]
The protein stability index of the first is lower: 3.32 for the first, 4.74 for the second.

First: DCMGIDRQHIPDTALCERCQPRNL [Y14A]
Second: DCMGIDRQHIPDTLLCERCQPRNL [Y14L]
The protein stability index of the first is higher: 3.85 for the first, 2.56 for the second.

Going from DCMGIDRQHIPDTKLCERCQPRNL [Y14K] to DCMGIDRQHIPDTILCERCQPRNL [Y14I], the protein stability index rises from 3.11 to 3.21.

Going from DCMGIDRQHIPDTTLCERCQPRNL [Y14T] to DCMGIDRQHIPDTVLCERCQPRNL [Y14V], the protein stability index falls from 3.73 to 3.43.

Going from DCMGIDRQHIPDTQLCERCQPRNL [Y14Q] to DCMGIDRQHIPDTWLCERCQPRNL [Y14W], the protein stability index falls from 3.7 to 3.26.

Compared with DCMGIDLQHIPDTYLCERCQPRNL [R7L], DCMGIDIQHIPDTYLCERCQPRNL [R7I] is lower in protein stability index: 2.68 for the first, 2.24 for the second.

First: DCMGIDQQHIPDTYLCERCQPRNL [R7Q]
Second: DCMGIDAQHIPDTYLCERCQPRNL [R7A]
The protein stability index of the first is higher: 3.06 for the first, 2.63 for the second.

Going from DCMGIDGQHIPDTYLCERCQPRNL [R7G] to DCMGIDTQHIPDTYLCERCQPRNL [R7T], the protein stability index falls from 3.69 to 3.02.

Compared with DCMGIDSQHIPDTYLCERCQPRNL [R7S], DCMGIDVQHIPDTYLCERCQPRNL [R7V] is lower in protein stability index: 3.44 for the first, 2.39 for the second.

Compared with DCMGIDNQHIPDTYLCERCQPRNL [R7N], DCMGIDFQHIPDTYLCERCQPRNL [R7F] is lower in protein stability index: 2.9 for the first, 2.78 for the second.

Compared with DCMGIDDQHIPDTYLCERCQPRNL [R7D], DCMGIDHQHIPDTYLCERCQPRNL [R7H] is higher in protein stability index: 3.62 for the first, 3.73 for the second.

First: DCMGIDEQHIPDTYLCERCQPRNL [R7E]
Second: DCMGIDYQHIPDTYLCERCQPRNL [R7Y]
The protein stability index of the first is higher: 3.58 for the first, 2.2 for the second.

First: DCMGIDMQHIPDTYLCERCQPRNL [R7M]
Second: DCMGIDCQHIPDTYLCERCQPRNL [R7C]
The protein stability index of the first is lower: 2.55 for the first, 4.09 for the second.

First: DCMGIDWQHIPDTYLCERCQPRNL [R7W]
Second: DCMGIDKQHIPDTYLCERCQPRNL [R7K]
The protein stability index of the first is higher: 2.4 for the first, 2.29 for the second.

Going from DCMGIDPQHIPDTYLCERCQPRNL [R7P] to DCMGIDRRHIPDTYLCERCQPRNL [Q8R], the protein stability index falls from 2.94 to 2.5.

Compared with DCMGIDRWHIPDTYLCERCQPRNL [Q8W], DCMGIDRGHIPDTYLCERCQPRNL [Q8G] is higher in protein stability index: 1.76 for the first, 2.59 for the second.

Compared with DCMGIDRDHIPDTYLCERCQPRNL [Q8D], DCMGIDRSHIPDTYLCERCQPRNL [Q8S] is higher in protein stability index: 2.27 for the first, 3.25 for the second.

Compared with DCMGIDRAHIPDTYLCERCQPRNL [Q8A], DCMGIDRMHIPDTYLCERCQPRNL [Q8M] is higher in protein stability index: 2.54 for the first, 2.58 for the second.

Going from DCMGIDRCHIPDTYLCERCQPRNL [Q8C] to DCMGIDRLHIPDTYLCERCQPRNL [Q8L], the protein stability index falls from 2.73 to 1.99.

Compared with DCMGIDRYHIPDTYLCERCQPRNL [Q8Y], DCMGIDRKHIPDTYLCERCQPRNL [Q8K] is lower in protein stability index: 2.65 for the first, 2.44 for the second.

Going from DCMGIDREHIPDTYLCERCQPRNL [Q8E] to DCMGIDRPHIPDTYLCERCQPRNL [Q8P], the protein stability index rises from 2.63 to 3.41.

Compared with DCMGIDRIHIPDTYLCERCQPRNL [Q8I], DCMGIDRVHIPDTYLCERCQPRNL [Q8V] is lower in protein stability index: 2.56 for the first, 2.1 for the second.

Going from DCMGIDRHHIPDTYLCERCQPRNL [Q8H] to DCMGIDRFHIPDTYLCERCQPRNL [Q8F], the protein stability index falls from 2.89 to 1.98.

Compared with DCMGIDRTHIPDTYLCERCQPRNL [Q8T], DCMGIDRNHIPDTYLCERCQPRNL [Q8N] is higher in protein stability index: 2.33 for the first, 3.07 for the second.
